Target: PrP (prion protein) (UniProt P04156)
Assay: EMSA
Conditions: PrP form and source not stated

GGGAGACAAGACUAGACGCUCAACUACGAACUCAUGACACAAGGAUGCAAUCUCAUCCCG [B-end (PrPSc binding region)]
Kd: 44.3 nM
